B1: EBOV62 (antibody, V domains shown)
VH: EVQLVESGGGLVQPGGSLRLSCAASGFTFSSYWMSWVRQAPGKGLEWVANIKQDGSAKYYVDSVKGRFTISRDNAKNSLYLQMNSLRAEDTAVYYCARDGLLGISDLLYPIYYFDYWGQGTLVTVSS
VL: DIVMTQSPSSLSASVGDRVTITCRASQNIGSYLNWYQQKPGKAPNLLMYAASSLQSGVPSRFSGSGSGTDFTLTITSLQPEDFATYYCQQSYSIPRTFGQGTQLEIK
B2: BDBV223 (antibody, V domains shown)
VH: QVQLQQWGAGLLKPSETLSLTCAVYGGSFTTTYWNWIRQPPGKGLEWIGEVNYSGNANYNPSLKGRVAISVDTSKNQFSLRLNSVTAADTAIYYCTSRIRSHIAYSWKGDVWGKGTTVTVSS
VL: EIVMTQSPGTLSLSPGERATLSCRASQSVPRNYIGWFQQKPGQAPRLLIYGASSRAAGFPDRFSGSGSGTDFTLTITRLEPEDFAMYYCHQYDRLPYTFGQGTKLEIK

What was measured:
[1] = target: BDBV GP (recombinant, full-length extracellular domain) (BDBV (Bundibugyo ebolavirus)); experiment: ELISA, GP coated on plate, mAb serially diluted
[2] = target: BDBV GP on virus (BDBV (Bundibugyo ebolavirus)); experiment: cell-based or functional assay

Row | Binder | EC50 [1] [µg/mL] | IC50, neutralization of BDBV [2] [ng/mL]
1 | B1 | 508 | 
2 | B2 |  | 5
